Assay results from patent US20030186329.

Tests used:
peptide LGQRGRSANAILE [1] = biological target: T1, peptide LGQRGRSANAILE
T1 chain: LGQRGRSANAILE

peptide LGGYGRSANAILE [2] = biological target: T2, peptide LGGYGRSANAILE
T2 chain: LGGYGRSANAILE

[3] = biological target: T3, peptide (I), native cleavage sequence from plasminogen
T3 chain: KKSPGRVVGGSVAH

peptide LGGSGRSATRDLE [4] = biological target: T4, peptide LGGSGRSATRDLE
T4 chain: LGGSGRSATRDLE

[5] = biological target: T5, peptide (IV) of Table 1, LGGSGHYGRSGLE
T5 chain: LGGSGHYGRSGLE

peptide SGRS [6] = biological target: T6, peptide SGRS
T6 chain: SGRS

peptide LGGSGRKASLSLE [7] = biological target: T7, peptide LGGSGRKASLSLE
T7 chain: LGGSGRKASLSLE

peptide SGKS [8] = biological target: T8, peptide SGKS
T8 chain: SGKS

peptide GSGKS [9] = biological target: T9, peptide GSGKS
T9 chain: GSGKS

[10] = biological target: T10, peptide (III) of Table 1, LGGSGERARGALE
T10 chain: LGGSGERARGALE

peptide SGRSA [11] = biological target: T11, peptide SGRSA
T11 chain: SGRSA

[12] = biological target: T12, peptide (VII) of Table 1, FRGRK
T12 chain: FRGRK

[13] = biological target: T13, peptide (V) of Table 1, YGRS
T13 chain: YGRS

[14] = biological target: T14, peptide (II) of Table 1, LGGSGQRGRKALE
T14 chain: LGGSGQRGRKALE

peptide LGGSGRSANAILE [15] = biological target: T15, peptide LGGSGRSANAILE
T15 chain: LGGSGRSANAILE

peptide LGGRGRSANAILE [16] = biological target: T16, peptide LGGRGRSANAILE
T16 chain: LGGRGRSANAILE

[17] = biological target: T17, fusion of maltose binding protein, QRGRSA and the HY4 gene product of Arabidopsis thaliana, Q43125
T17 chain: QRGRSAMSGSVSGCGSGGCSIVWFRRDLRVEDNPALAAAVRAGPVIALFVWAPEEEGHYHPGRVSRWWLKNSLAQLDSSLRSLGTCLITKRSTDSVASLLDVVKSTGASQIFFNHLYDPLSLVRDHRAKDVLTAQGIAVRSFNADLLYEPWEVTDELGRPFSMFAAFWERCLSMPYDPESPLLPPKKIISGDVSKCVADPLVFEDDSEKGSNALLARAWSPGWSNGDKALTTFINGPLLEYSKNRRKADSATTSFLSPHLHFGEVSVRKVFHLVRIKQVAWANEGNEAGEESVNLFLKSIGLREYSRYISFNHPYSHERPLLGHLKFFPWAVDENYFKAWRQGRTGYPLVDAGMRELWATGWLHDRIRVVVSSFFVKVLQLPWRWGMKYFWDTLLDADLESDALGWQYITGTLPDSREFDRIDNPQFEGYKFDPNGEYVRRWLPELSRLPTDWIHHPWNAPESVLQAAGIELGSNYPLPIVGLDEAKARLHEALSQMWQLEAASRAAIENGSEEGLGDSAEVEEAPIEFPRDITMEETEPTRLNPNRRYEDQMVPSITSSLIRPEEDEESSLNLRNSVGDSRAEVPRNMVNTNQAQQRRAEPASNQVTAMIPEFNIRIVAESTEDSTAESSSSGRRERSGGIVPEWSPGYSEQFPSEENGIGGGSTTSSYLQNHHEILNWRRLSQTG

peptide LGGSGRNAQVRLE [18] = biological target: T18, peptide LGGSGRNAQVRLE
T18 chain: LGGSGRNAQVRLE

[19] = biological target: T19, peptide (VI) of Table 1, RGRK
T19 chain: RGRK

peptide LGQRGRSANAILE [20] = biological target: T1, peptide LGQRGRSANAILE; assay: kinetics of peptide hydrolysis by the enzyme, HPLC, Eadie-Hofstee
peptide LGGYGRSANAILE [21] = biological target: T2, peptide LGGYGRSANAILE; assay: as above
[22] = biological target: T3, peptide (I), native cleavage sequence …; assay: as above
peptide LGGSGRSATRDLE [23] = biological target: T4, peptide LGGSGRSATRDLE; assay: as above
[24] = biological target: T5, peptide (IV) of Table 1, LGGSGHYGRSGLE; assay: as above
peptide LGGSGRKASLSLE [25] = biological target: T7, peptide LGGSGRKASLSLE; assay: as above
[26] = biological target: T10, peptide (III) of Table 1, LGGSGERARGALE; assay: as above
[27] = biological target: T14, peptide (II) of Table 1, LGGSGQRGRKALE; assay: as above
peptide LGGSGRSANAILE [28] = biological target: T15, peptide LGGSGRSANAILE; assay: as above
peptide LGGRGRSANAILE [29] = biological target: T16, peptide LGGRGRSANAILE; assay: as above
peptide LGGSGRNAQVRLE [30] = biological target: T18, peptide LGGSGRNAQVRLE; assay: as above
peptide SGRS [31] = biological target: T6, peptide SGRS; assay: kinetics of peptide hydrolysis by the enzyme, HILIC HPLC, Eadie-Hofstee
peptide SGKS [32] = biological target: T8, peptide SGKS; assay: as above
peptide GSGKS [33] = biological target: T9, peptide GSGKS; assay: as above
peptide SGRSA [34] = biological target: T11, peptide SGRSA; assay: as above
[35] = biological target: T12, peptide (VII) of Table 1, FRGRK; assay: as above
[36] = biological target: T13, peptide (V) of Table 1, YGRS; assay: as above
[37] = biological target: T19, peptide (VI) of Table 1, RGRK; assay: as above

B1: tissue plasminogen activator (t-PA) (protein)
chain: SYQVICRDEKTQMIYQQHQSWLRPVLRSNRVEYCWCNSGRAQCHSVPVKSCSEPRCFNGGTCQQALYFSDFVCQCPEGFAGKCCEIDTRATCYEDQGISYRGTWSTAESGAECTNWNSSALAQKPYSGRRPDAIRLGLGNHNYCRNPDRDSKPWCYVFKAGKYSSEFCSTPACSEGNSDCYFGNGSAYRGTHSLTESGASCLPWNSMILIGKVYTAQNPSAQALGLGKHNYCRNPDGDAKPWCHVLKNRRLTWEYCDVPSCSTCGLRQYSQPQFRIKGGLFADIASHPWQAAIFAKHRRSPGERFLCGGILISSCWILSAAHCFQERFPPHHLTVILGRTYRVVPGEEEQKFEVEKYIVHKEFDDDTYDNDIALLQLKSDSSRCAQESSVVRTVCLPPADLQLPDWTECELSGYGKHEALSPFYSERLKEAHVRLYPSSRCTSQHLLNRTVTDNMLCAGDTRSGGPQANLHDACQGDSGGPLVCLNDGRMTLVGIISWGLGCGQKDVPGVYTKVTNYLDWIRDNMRP
Q: What does the source list for B1?
A: kcat (peptide LGQRGRSANAILE [1]): 2.55 s⁻¹; kcat/Km (peptide LGQRGRSANAILE [1]): 850 M⁻¹ s⁻¹; kcat (peptide LGGYGRSANAILE [2]): 3.29 s⁻¹; kcat/Km (peptide LGGYGRSANAILE [2]): 1800 M⁻¹ s⁻¹; kcat [3]: 0.0043 s⁻¹; kcat/Km [3]: 0.29 M⁻¹ s⁻¹; kcat (peptide LGGSGRSATRDLE [4]): 0.068 s⁻¹; kcat/Km (peptide LGGSGRSATRDLE [4]): 45 M⁻¹ s⁻¹; kcat [5]: 1.29 s⁻¹; kcat/Km [5]: 322 M⁻¹ s⁻¹; kcat (peptide SGRS [6]): 5 s⁻¹; kcat/Km (peptide SGRS [6]): 330 M⁻¹ s⁻¹; kcat (peptide LGGSGRKASLSLE [7]): 0.168 s⁻¹; kcat/Km (peptide LGGSGRKASLSLE [7]): 33 M⁻¹ s⁻¹; fold decrease of catalytic efficiency against peptide (VI) SGRS (peptide SGKS [8]): by a factor of 49 for t-PA; kcat (peptide SGKS [8]): 0.19 s⁻¹; kcat/Km (peptide SGKS [8]): 6.8 M⁻¹ s⁻¹; kcat (peptide GSGKS [9]): 0.07 s⁻¹; kcat/Km (peptide GSGKS [9]): 1.6 M⁻¹ s⁻¹; kcat [10]: 0.073 s⁻¹; kcat/Km [10]: 52 M⁻¹ s⁻¹; kcat (peptide SGRSA [11]): 2.4 s⁻¹; kcat/Km (peptide SGRSA [11]): 60 M⁻¹ s⁻¹; fold more efficient cleavage by t-PA than by u-PA [12]: approximately 74 times more efficiently by t-PA than by u-PA; kcat [12]: 12.2 s⁻¹; kcat/Km [12]: 1240 M⁻¹ s⁻¹; kcat [13]: 23.7 s⁻¹; kcat/Km [13]: 3950 M⁻¹ s⁻¹; kcat [14]: 0.99 s⁻¹; kcat/Km [14]: 430 M⁻¹ s⁻¹; kcat (peptide LGGSGRSANAILE [15]): 0.305 s⁻¹; kcat/Km (peptide LGGSGRSANAILE [15]): 75 M⁻¹ s⁻¹; kcat (peptide LGGRGRSANAILE [16]): 0.85 s⁻¹; kcat/Km (peptide LGGRGRSANAILE [16]): 350 M⁻¹ s⁻¹; cleavage of fusion protein, SDS-PAGE [17]: t-PA readily cleaved the fusion protein; kcat (peptide LGGSGRNAQVRLE [18]): 0.255 s⁻¹; kcat/Km (peptide LGGSGRNAQVRLE [18]): 36 M⁻¹ s⁻¹; kcat [19]: 15.3 s⁻¹; kcat/Km [19]: 992 M⁻¹ s⁻¹; Km (peptide LGQRGRSANAILE [20]): 3 mM; Km (peptide LGGYGRSANAILE [21]): 1.85 mM; Km [22]: 15 mM; Km (peptide LGGSGRSATRDLE [23]): 1.5 mM; Km [24]: 4.01 mM; Km (peptide LGGSGRKASLSLE [25]): 5.1 mM; Km [26]: 1.41 mM; Km [27]: 2.3 mM; Km (peptide LGGSGRSANAILE [28]): 4.08 mM; Km (peptide LGGRGRSANAILE [29]): 2.4 mM; Km (peptide LGGSGRNAQVRLE [30]): 7 mM; Km (peptide SGRS [31]): 15 mM; Km (peptide SGKS [32]): 28 mM; Km (peptide GSGKS [33]): 44 mM; Km (peptide SGRSA [34]): 40 mM; Km [35]: 9.8 mM; Km [36]: 6 mM; Km [37]: 16.6 mM
